Here are results for 1 substance from US20220177583A1.

Assay [1] concerns the target human CLDN6, endogenously expressed on cancer cell lines (human) (UniProt P56747). As to the kind of experiment: FACS on OVCA429 cells, sample 1: no 1o, 2nd antibody NBP1-51902, 2o wash 2x.
For assay [2] the target is unchanged. Briefly: FACS, ARK2 cells, secondary antibody alone (negative control, background; column 0.3 ug).
The target is the same in assay [3]. As to the kind of experiment: FACS, ARK2 cells, secondary antibody alone (negative control, background; column 1.5 ug). For orientation: Flow cytometry measures light scatter and fluorescence of single cells or particles in a stream.
In assay [4] the target is T1, mouse CLDN6 fused to GFP, expressed on engineered HEK293T cells (mouse) (UniProt Q9Z262).
T1 sequence (looked up): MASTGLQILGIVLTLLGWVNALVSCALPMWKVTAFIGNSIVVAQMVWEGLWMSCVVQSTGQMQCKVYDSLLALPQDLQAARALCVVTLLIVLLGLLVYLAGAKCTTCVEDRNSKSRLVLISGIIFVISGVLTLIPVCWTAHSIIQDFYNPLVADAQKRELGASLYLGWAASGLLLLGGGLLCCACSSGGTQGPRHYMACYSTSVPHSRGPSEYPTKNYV
Briefly: FACS, 293T clone with mouse CLDN6, secondary antibody alone (negative control, background).

The target in assay [5] is human CLDN6, endogenously expressed on cancer cell lines (human) (UniProt P56747). As to the kind of experiment: FACS, OVCA429 cells, secondary antibody alone (negative control, background; column 1.5 ug).
Assay [6] shares this target. As to the kind of experiment: FACS on ARK2 cells, secondary antibody only; number from the data table under the bars.
In assay [7] the target is human CLDN6 fused to GFP, expressed on engineered HEK293T cells (human) (UniProt P56747). As to the kind of experiment: FACS, 293T clone with human CLDN6, secondary antibody alone (negative control, background; column 0.3 ug Ab).
Assay [8] has the same target. Briefly: FACS, 293T clone with human CLDN6, secondary antibody alone (negative control, background; column 1.5 ug Ab).
For assay [9] the target is unchanged. As to the kind of experiment: FACS on 293T CLDN6 mGFP Clone A11 cells, secondary antibody only; number from the data table under the bars.
Assay [10] deals with human CLDN6, endogenously expressed on cancer cell lines (human) (UniProt P56747). As to the kind of experiment: flow cytometry on UMUC4 cells (Positive Cell Line), secondary antibody alone; the same number stands under the 0.1µg and the 1µg head.
Assay [11] has as its target human CLDN6 fused to GFP, expressed on engineered HEK293T cells (human) (UniProt P56747). As to the kind of experiment: flow cytometry on HEK293T CLDN6-mGFP A11 cells (Positive Artificial OE Cell Line), secondary antibody alone; the same number stands under the 0.1µg and the 1µg head.

Sequence of human CLDN6, endogenously expressed on cancer cell lines (human) (P56747 whole entry, the tested form may be a part): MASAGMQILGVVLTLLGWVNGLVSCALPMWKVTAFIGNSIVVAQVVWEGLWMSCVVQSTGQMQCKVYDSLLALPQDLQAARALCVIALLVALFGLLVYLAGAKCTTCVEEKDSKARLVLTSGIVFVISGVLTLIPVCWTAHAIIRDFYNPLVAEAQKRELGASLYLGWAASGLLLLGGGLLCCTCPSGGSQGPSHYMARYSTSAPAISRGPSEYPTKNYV

In assay [1], “2nd Ab only (secondary detection antibody alone, negative control)” displayed a Dylight 649 Signal by C6 of 1210. Also, the FACS signal is 1350 in [2]; 1350 in assay [3]; 1060 in assay [4]; 886 in assay [5]; 768 in [7]; 768 in assay [8]. Moreover, the FL4H Singlets in Viable cells in [6] is 9130; in assay [9] it was 9420. Also, the figures for the flow cytometry signal in assay [10] and in assay [11] were 1110 and 1240, respectively.
